Key:
[1] = target: T1, recombinant MMP2 catalytic domain (UniProt P08253 110-452, limits assumed); assay: Western blot
T1 construct: domain: catalytic domain

[2] = target: T2, recombinant MT1-MMP (MMP14) catalytic domain (UniProt P50281 112-284, limits assumed); assay: ELISA
T2 construct: domain: catalytic domain

[3] = target: T3, recombinant MT3-MMP (MMP16) catalytic domain (UniProt P51512 120-292, limits assumed); assay: ELISA
T3 construct: domain: catalytic domain
T3 sequence (P51512 120-292 limits assumed): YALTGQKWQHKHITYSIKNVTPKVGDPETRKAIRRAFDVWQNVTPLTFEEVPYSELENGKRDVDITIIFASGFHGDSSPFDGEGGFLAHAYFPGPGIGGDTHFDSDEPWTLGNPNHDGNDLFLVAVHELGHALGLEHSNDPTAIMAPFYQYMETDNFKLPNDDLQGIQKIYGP

T1 sequence (P08253 110-452 limits assumed): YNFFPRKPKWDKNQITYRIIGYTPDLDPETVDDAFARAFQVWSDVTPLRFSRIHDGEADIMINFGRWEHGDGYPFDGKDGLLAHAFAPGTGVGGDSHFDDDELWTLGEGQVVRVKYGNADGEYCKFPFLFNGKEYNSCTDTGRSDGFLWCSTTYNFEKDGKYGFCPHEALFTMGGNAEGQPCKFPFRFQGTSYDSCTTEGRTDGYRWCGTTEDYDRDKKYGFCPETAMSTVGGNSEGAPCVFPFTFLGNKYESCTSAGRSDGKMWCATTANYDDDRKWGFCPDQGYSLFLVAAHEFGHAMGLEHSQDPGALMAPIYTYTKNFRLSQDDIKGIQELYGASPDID

B1: K4H7 scFv antibody (scFv)
scFv: QVQLVQSGGGLVKPGRSLRLSCTASGFTFGDYAMSWFRQAPGKGLEWVGFIRSKAYGGTTEYAASVKGRFTISRDDSKSIAYLQMNSLKTEDTAVYYCTRGSSGWFLNWFDPWGQGTLVTVSSLEGGGGSGGGGSGGGGSELETTLTQSPATLSLSPGERATLSCRASQSISSSYLAWYQHKPGQAPRLLIYGASRRATGIPDRFSGSGSGTDFSLTISRLEPEDFAVYYCLHYGSSKWTFGQGTKVEIKR
notes: Human scFv from the VTT naive phage display libraries; Purified scFv clones contain a myc tag (produced as soluble scFv-myc-his fusions); also called K4H7 clone; scFV clone K4H7
[1]
  binding result: no binding (tested: scFv 1 µg/ml)
[2]
  binding result: no binding (tested: 3 µg of recombinant protein)
[3]
  binding result: no binding (tested: 3 µg of recombinant protein)

Reference: patent publication US20150232572A1 (UNIVERSIT DE LI GE, published 2015)
